# Experimental data as given in patent US20220031857A1.
# Key:
# [1] = molecular target: recombinant human TfR1 (transferrin receptor 1) (human) (UniProt P02786); assay: ELISA on coated human TfR1, purified VNAR-Fc
# [2] = molecular target: recombinant mouse TfR1 (transferrin receptor 1) (mouse) (UniProt Q62351); assay: ELISA on coated mouse TfR1, purified VNAR-Fc
# [3] = molecular target: recombinant mouse TfR1 (transferrin receptor 1) (mouse) (UniProt Q62351); assay: Octet, mouse TfR1 on anti-His biosensors, analyte 10 nM, PBS pH 6.0
# [4] = molecular target: recombinant mouse TfR1 (transferrin receptor 1) (mouse) (UniProt Q62351); assay: Octet, mouse TfR1 on anti-His biosensors, analyte 10 nM, PBS pH 7.2
# [5] = molecular target: recombinant human TfR1 (transferrin receptor 1) (human) (UniProt P02786); assay: SPR (Biacore), single-cycle kinetics, His-tagged TfR1 captured, VNAR-Fc injected
# [6] = molecular target: recombinant mouse TfR1 (transferrin receptor 1) (mouse) (UniProt Q62351); assay: as above
# [7] = molecular target: recombinant human TfR1 (transferrin receptor 1) (human) (UniProt P02786); assay: ELISA, plate coated with 1 µg/ml recombinant human TfR1, purified VNAR-Fc titrated, 4-parameter fit
# [8] = molecular target: recombinant mouse TfR1 (transferrin receptor 1) (mouse) (UniProt Q62351); assay: ELISA, plate coated with 1 µg/ml recombinant mouse TfR1, purified VNAR-Fc titrated, 4-parameter fit
# [9] = molecular target: recombinant mouse TfR1 (transferrin receptor 1) (mouse) (UniProt Q62351); assay: Octet, mouse TfR1 immobilised on biosensors; row buffer (no first antibody), column cont. (taken as the control VNAR F02)
# [10] = molecular target: recombinant human TfR1 (transferrin receptor 1) (human) (UniProt P02786); assay: Octet, human TfR1 immobilised on biosensors; row buffer (no first antibody), column cont. (taken as the control VNAR F02)
# [11] = molecular target: recombinant human TfR1 (transferrin receptor 1) (human) (UniProt P02786); assay: Octet, human TfR1 immobilised; 8D3 as first antibody, which does not bind human TfR1 (grey column); white cell; cont. taken as the control VNAR F02
# Sequence of recombinant mouse TfR1 (transferrin receptor 1) (mouse) (Q62351 89-763 limits assumed): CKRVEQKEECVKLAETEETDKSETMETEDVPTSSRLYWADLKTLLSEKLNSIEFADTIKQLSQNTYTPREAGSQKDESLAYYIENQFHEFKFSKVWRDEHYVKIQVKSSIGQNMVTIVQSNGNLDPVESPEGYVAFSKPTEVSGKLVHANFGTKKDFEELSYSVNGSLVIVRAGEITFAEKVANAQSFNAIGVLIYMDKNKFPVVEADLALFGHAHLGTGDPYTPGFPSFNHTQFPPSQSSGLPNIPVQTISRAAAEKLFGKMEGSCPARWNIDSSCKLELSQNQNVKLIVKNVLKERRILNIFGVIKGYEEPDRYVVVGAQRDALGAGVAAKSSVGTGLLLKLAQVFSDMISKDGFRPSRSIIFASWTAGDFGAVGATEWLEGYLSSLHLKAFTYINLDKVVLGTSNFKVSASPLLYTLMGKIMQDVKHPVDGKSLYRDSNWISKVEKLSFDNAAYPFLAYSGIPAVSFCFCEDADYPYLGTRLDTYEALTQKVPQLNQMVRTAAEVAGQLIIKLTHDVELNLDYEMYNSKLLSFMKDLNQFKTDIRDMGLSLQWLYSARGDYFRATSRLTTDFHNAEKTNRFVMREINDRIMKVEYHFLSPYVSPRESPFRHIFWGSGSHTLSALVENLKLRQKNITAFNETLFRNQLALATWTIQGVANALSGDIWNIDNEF
# Sequence of recombinant human TfR1 (transferrin receptor 1) (human) (P02786 89-760 limits assumed): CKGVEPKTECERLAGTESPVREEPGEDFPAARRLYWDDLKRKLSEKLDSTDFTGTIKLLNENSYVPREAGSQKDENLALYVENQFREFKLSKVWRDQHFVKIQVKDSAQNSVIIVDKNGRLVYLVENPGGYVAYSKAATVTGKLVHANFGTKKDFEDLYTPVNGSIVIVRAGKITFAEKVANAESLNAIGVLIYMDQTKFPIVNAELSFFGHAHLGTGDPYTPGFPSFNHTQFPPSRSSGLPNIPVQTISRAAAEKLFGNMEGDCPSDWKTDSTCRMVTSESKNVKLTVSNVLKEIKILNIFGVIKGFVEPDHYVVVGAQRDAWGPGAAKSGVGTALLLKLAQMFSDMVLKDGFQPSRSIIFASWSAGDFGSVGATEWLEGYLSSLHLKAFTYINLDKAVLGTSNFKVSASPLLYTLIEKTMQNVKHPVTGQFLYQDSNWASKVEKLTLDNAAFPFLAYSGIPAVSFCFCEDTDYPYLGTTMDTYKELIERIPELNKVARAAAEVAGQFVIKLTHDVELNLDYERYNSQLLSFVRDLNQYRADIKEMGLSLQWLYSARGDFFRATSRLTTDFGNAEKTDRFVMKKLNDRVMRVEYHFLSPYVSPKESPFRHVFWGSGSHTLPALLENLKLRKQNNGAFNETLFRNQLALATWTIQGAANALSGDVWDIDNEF
substance,measurement,setting,value
F02 control VNAR-Fc (Fc fusion),EC50,[1],1 nM
same,EC50,[2],10 nM
same,Kd,[3],0.344 nM
same,koff,[3],0.000147 s⁻¹
same,kon,[3],426000 M⁻¹ s⁻¹
same,Kd,[4],0.294 nM
same,koff,[4],9.86e-05 s⁻¹
same,kon,[4],335000 M⁻¹ s⁻¹
same,Kd,[5],0.969 nM
same,koff,[5],0.00011 s⁻¹
same,kon,[5],113000 M⁻¹ s⁻¹
same,Kd,[6],1.46 nM
same,koff,[6],0.00016 s⁻¹
same,kon,[6],109000 M⁻¹ s⁻¹
same,EC50,[7],3.69 nM
same,EC50,[8],38.2 nM
same,Octet signal as second antibody after buffer,[9],0.194
same,Octet signal as second antibody after buffer,[10],0.386
same,Octet signal as second antibody after 8D3,[11],0.381
